Assay results reported in patent publication US20230143031A1 (published 2023).

Biological target: T1, NY-ESO antigen (NY-ESO-1) peptide on HLA-A*02:01 (human)
T1 peptide: SLLMWITQC
Test: multimer staining

binding result: recognises
B1: anti-NY-ESO TCR (TCR, V domains shown)
Valpha: KQEVTQIPAALSVPEGENLVLNCSFTDSAIYNLQWFRQDPGKGLTSLLLIQSSQREQTSGRLNASLDKSSGRSTLYIAASQPGDSATYLCAGDNNAGNMLTFGGGTRLMVKP
Vbeta: DAMVIQNPRYQVTQFGKPVTLSCSQTLNHNVMYWYQQKSSQAPKLLFHYYDKDFNNEADTPDNFQSRRPNTSFCFLDIRSPGLGDAAMYLCATSVTDGTALTGELFFGEGSRLTVL
